# T1: WT1 (wildtype WT1 peptide) peptide on HLA-A*24:02 (human)
# T1 peptide: CMTWNQMNL
# T2: WT1 (mutant WT1 peptide: second methionine of the wildtype peptide substituted with tyrosine) peptide on … (human)
# T2 peptide: CYTWNQMNL
# T3: HIV (human immunodeficiency virus) envelope peptide on HLA-A*24:02 (human)
# T3 peptide: RYLRDQQLL
# B1: WT1 TCR A12-3/B5-1 (TCR, V domains shown)
# Valpha: QKEVEQDPGPLSVPEGAIVSLNCTYSNSAFQYFMWYRQYSRKGPELLMYTYSSGNKEDGRFTAQVDKSSKYISLFIRDSQPSDSATYLCATSNAGGTSYGKLTFGQGTILTVHP
# Vbeta: KAGVTQTPRYLIKTRGQQVTLSCSPISGHRSVSWYQQTPGQGLQFLFEYFSETQRNKGNFPGRFSGRQFSNSRSEMNVSTLELGDSALYLCASSYGERERKGETQYFGPGTRLLVL
# Legend:
# Experiment in all cases: multimer staining
# [1] = molecular target: T1, WT1 (wildtype WT1 peptide) peptide on …
# [2] = molecular target: T2, WT1 (mutant WT1 peptide: second …)
# [3] = molecular target: T3, HIV (human immunodeficiency virus) …
binder,measurement,setting,value
B1,binding result,[1],recognises
same,binding result,[2],recognises
same,binding result,[3],no recognition
